For one molecule, percent of the full-length NS5 binding activity to IRF3 results are on record in publication PMC5788864.

Assay [1] deals with Zika virus NS5 methyltransferase (MTase) domain, amino acids 1-264, strain FSS13025, HA-tag (Zika virus strain FSS13025). Kind of assay: co-IP.
Assay [2] deals with Zika virus NS5 RNA-dependent polymerase (RdRp) domain, amino acids 275-903, strain FSS13025, HA-tag (Zika virus strain FSS13025). Kind of assay: co-IP.

B1: interferon regulatory factor 3 (IRF3), endogenous (natural protein)
chain: MGTPKPRILPWLVSQLDLGQLEGVAWVNKSRTRFRIPWKHGLRQDAQQEDFGIFQAWAEATGAYVPGRDKPDLPTWKRNFRSALNRKEGLRLAEDRSKDPHDPHKIYEFVNSGVGDFSQPDTSPDTNGGGSTSDTQEDILDELLGNMVLAPLPDPGPPSLAVAPEPCPQPLRSPSLDNPTPFPNLGPSENPLKRLLVPGEEWEFEVTAFYRGRQVFQQTISCPEGLRLVGSEVGDRTLPGWPVTLPDPGMSLTDRGVMSYVRHVLSCLGGGLALWRAGQWLWAQRLGHCHTYWAVSEELLPNSGHGPDGEVPKDKEGGVFDLGPFIVDLITFTEGSGRSPRYALWFCVGESWPQDQPWTKRLVMVKVVPTCLRALVEMARVGGASSLENTVDLHISNSHPLSLTSDQYKAYLQDLVEGMDFQGPGES
On to B1, for which the values for the percent of the full-length NS5 binding activity to IRF3 in assay [1] and in assay [2] were 82% and 51%, respectively.
